What was measured:
[1] = molecular target: RSV A + RSV B bivalent composition (RSV subtype A; RSV subtype B); test: AM14 prefusion assay relative to standard; RSV A + RSV B 240 µg/mL each, 2% sucrose + 4% mannitol; post-lyo 2 months at 5°C
[2] = molecular target: RSV A + RSV B bivalent composition (RSV subtype A; RSV subtype B); test: AM14 prefusion assay relative to standard; RSV A + RSV B 240 µg/mL each, 2% sucrose + 4% mannitol; post-lyo T0

AM14 (trimeric prefusion specific antibody of the AM14 ELISA), sequence (VH): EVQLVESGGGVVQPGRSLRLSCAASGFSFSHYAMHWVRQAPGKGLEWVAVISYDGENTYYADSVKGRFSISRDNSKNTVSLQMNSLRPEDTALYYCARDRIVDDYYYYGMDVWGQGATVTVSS
AM14 (trimeric prefusion specific antibody of the AM14 ELISA), sequence (VL): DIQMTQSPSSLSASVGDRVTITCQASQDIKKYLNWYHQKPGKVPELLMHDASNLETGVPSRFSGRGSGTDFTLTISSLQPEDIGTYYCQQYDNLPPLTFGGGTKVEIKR

Substance: AM14 (trimeric prefusion specific antibody of the AM14 ELISA)
- AM14 Prefusion Content (%), relative to standard [1]: 116%
- AM14 Prefusion Content (%), relative to standard [2]: 81%

From patent publication US20260097113A1 (Pfizer, published 2026)
